Measurements published in patent US20170173114A1, “METHODS AND COMPOSITIONS FOR INDUCTION OF UCP1 EXPRESSION” (Joslin Diabetes Center, Inc., priority 2014, published 2017).
“Also recorded” adds a separate entry of the source.

How the values were obtained:
UCP1 [1] = assay: UCP1 mRNA expression in SVF cells from subcutaneous white adipose tissue (SQ-SVF); format: cell-based, C57BL/6 mice; details: growth media, 3 days; vs control
Experimental: Eight 6-week old C57BL/6 male mice were sacrificed. Interscapular BAT and axillary subcutaneous WAT were removed, minced and digested with 1 mg/ml collagenase for 45 minutes at 37° C. in DMEM/F12 media, containing 1% BSA and antibiotics. Digested tissues were filtered through sterile 150 μm nylon mesh and centrifuged at 250×g for 5 minutes. The floating fractions consisting of adipocytes were discarded and the pellets representing the SVF were then resuspended in erythrocyte lysis buffer (154 mM NH4Cl, 10 mM KHCO3, 0.1 mM EDTA) for 10 minutes to remove red blood cells. The cells were further centrifuged at 500×g for 5 minutes, plated at 8×10^5 cells/well of a 24-well plate and grown at 37° C. in DMEM/F12 supplemented with 10% FBS at 37° C.
To determine if FGF6 treatment of primary adipose progenitors could also increase UCP1 expression as observed in Example 1, stromo-vascular fraction (SVF) cells, which comprise adipocyte progenitors, were isolated from interscapular brown adipose tissue (BAT-SVF) and subcutaneous white adipose tissue (SQ-SVF). SVF cells were subsequently treated with FGF6 or FGF21 in growth media (DMEM+10% FBS) for 3 days, followed by determination of UCP1 expression. As described in FIGS. 9A and 9B, FGF21 treatment had little effect on UCP1 mRNA expression in either type of SVF cells, as compared to the control. […]

UCP1 [2] = assay: UCP1 expression in immortalized human brown fat progenitors; format: cell-based
Experimental: Primary stromal-vascular fraction (SVF) from human neck fat was isolated as described previously (Cannon and Nedergaard, Physiol Rev, 84: 277-359, 2004). Briefly, freshly resected superficial fat (pooled subcutaneous and subplatysmal) and fat located in the deeper neck regions (pooled carotid sheath, longus colli and prevertebral) were collected, minced and digested using collagenase 1 (2 mg/mL in PBS with the addition of 3.5% BSA; Worthington Biochemical Corporation, Lakewood, N.J.), and the SVF was isolated. SVF cells were plated and grown in high glucose Dulbecco's modified Eagle's medium (DMEM/H) supplemented with 10% (v/v) fetal bovine serum (FBS) and 1% penicillin/streptomycin. For adipocyte differentiation, cells were grown to confluent for 6 days (day 6) and then exposed to adipogenic induction mixture in DMEM/H medium containing isobutylmethylxanthine (0.5 mM), dexamethasone (0.1 μM), human insulin (0.5 μM; Roche Applied Science, Indianapolis, Ind.), T3 (2 nM), indomethacin (30 μM), pantothenate (17 μM), biotin (33 μM) and 2% FBS for another 12 days (referred as day 18). Induction medium was changed every 3 days until collected.
Primary SVF cells were immortalized with human telomere reverse transcriptase (hTERT) as described previously (Tchkonia, T., et al. Diabetes 55, 2571-2578, 2006). […]

[3] = Glucose tolerance test in Chow or high fat diet mice; format: in vivo, C57BL6 mice; details: Chow or HFD mice, i.p. glucose 2 mg/g after 16 h fast; particularly in obese HFD mice
Experimental: C57BL6 mice were fed either the Chow diet or a high fat diet (HFD) and were fasted overnight (16 h) prior to intraperitoneal injection of 2 mg/g body weight of glucose using a 20% (w/v) solution.

B1: FGF6: fibroblast growth factor 6; recombinant human FGF from R&D Systems, or mouse FGF6 cDNA overexpressed by lentiviral vector (protein)
chain: KRQRRLYCNVGIGFHLQVLPDGRISGTHEENPYSLLEISTVERGVVSLFGVRSALFVAMNSKGRLYATPSFQEECKFRETLLPNNYNAYESDLYQGTYIALSKYGRVKRGSKVSPIMTVTHFLPRI
- increase in UCP1 mRNA expression in SVF from subcutaneous WAT (UCP1 [1]): ~200 fold
- increase in UCP1 expression in human brown fat precursors (UCP1 [2]): ~60 fold
- glucose tolerance [3]: enhanced glucose tolerance; also recorded: improved glucose tolerance
